Test results reported in patent US11787839B2, “Targeting α2δ-1-bound glutamate receptors for treating diseases and disorders” (Board of Regents, The University of Texas System, priority 2017, dated 2023).

Key:
cleaved caspase-3 = assay: MCAO: cleaved caspase-3 protein levels in brain tissues; type: in vivo, mouse; conditions: MCAO mice; cortex, hippocampus, striatum
Description: (C and D) Original gel images (C, two pairs of samples) and quantification (D) of cleaved caspase-3 protein levels in the cerebral cortex, hippocampus, and striatum from MCAO mice treated with α2δ-1Tat peptide or control peptide (n=8 mice per group). Data are shown as means±SEM. *p<0.05 compared with the sham group. #p<0.05 compared with MCAO+vehicle group or control peptide group in the same brain region (repeated measures ANOVA for panel B; paired Student's t-test for panel D).

[1] = target: T1, NMDARs of spinally projecting PVN neurons (Rattus norvegicus, UniProt P35439+Q00959+Q00960); assay: Recordings of spinally projecting PVN neurons in rat brain slices (Ang II); type: cell-based
T1 construct: from tissue; host or cells: rat hypothalamic slices containing the PVN (Sprague-Dawley, WKY, SHR) and synaptosomes made from them
Description: Retrograde labeling of spinally projecting PVN neurons: Rats or mice were anesthetized with 2-3% isoflurane, and their spinal cords at the T1-T4 level were exposed through dorsal laminectomy. A fluorescent microsphere suspension (FluoSpheres, 0.04 μm; Molecular Probes, Invitrogen, Eugene, Oreg.) was pressure ejected (Nanoject II Microinjectors, Drummond Scientific Company, Broomall, Pa.) bilaterally into the IML region of the spinal cord in six separate 50-nl injections using a glass micropipette (tip diameter, 20-30 μm). […] The wound was closed with sutures after injection. Animals were returned to their cages for 4-7 days, which was sufficient time to permit the tracer to be retrogradely transported to the PVN. The animals were inspected daily for motor activity, signs of infection, and food and water intake.
Brain slice preparation: Four to seven days after fluorescent tracer injection, the animals were anesthetized with isoflurane and rapidly decapitated. […] Coronal slices (thickness, 300 μm) containing the PVN were cut from the tissue block in the ice-cold aCSF. […] The brain slices were placed in a glass-bottom chamber and continuously perfused with aCSF at 3.0 ml/min at 34° C. maintained by an inline solution heater and temperature controller.
The labeled PVN neurons were briefly identified with the aid of epifluorescence illumination, and whole-cell recordings from labeled PVN neurons were performed under differential interference contrast optics on an upright microscope (BX50 WI; Olympus Optical, Tokyo, Japan). Recordings of postsynaptic currents began 5 min after the whole-cell access was established and the current reached a steady state.
Signals were processed with an […] amplifier (Axon Instruments, Foster City, Calif.). A liquid junction potential of 15 mV (for the potassium gluconate pipette solution) was corrected during off-line analysis.
Postsynaptic NMDAR currents were elicited by puff application of 100 μmol/L NMDA to the recorded neuron using a positive pressure system (4 p.s.i., 50 ms; Toohey Company, Fairfield, N.J.). The tip of the puff pipette was placed 150 μm from the recorded neuron. […] The NMDAR current data presented in the manuscript were the average of 3 consecutive currents elicited by repeated puff NMDA. The neuron was discarded if the current was not stable.
Ang II, losartan, and NMDA were obtained from Sigma (St. Louis, Mo.). The α2δ-1Tat peptide and scrambled control peptide were synthesized by Bio Basic Inc. (Markham, Ontario, Canada) and validated by liquid chromatography and mass spectrometry. […] All drugs were prepared immediately before the experiments and applied to the slice chamber. The brain slices were first pretreated with Ang II, losartan, α2δ-1Tat peptide, or control peptide in the slice incubation chamber before recording. For electrophysiological recording, the treatment agents were immediately removed and the brain slice transferred to a separate recording chamber.

[2] = target: T2, GluN1 and α2δ-1 in hypothalamic synaptosomes (Rattus norvegicus, UniProt P35439+Q00959+Q00960); assay: Protein level analysis in hypothalamic synaptosomes (Ang II); type: cell-based
T2 construct: from tissue; host or cells: rat hypothalamic slices containing the PVN (Sprague-Dawley, WKY, SHR) and synaptosomes made from them
Experimental: Protein level analysis in hypothalamic synaptosomes: The hypothalamic tissues containing the PVN (pooled from 2 rats per sample) were homogenized using 10 volumes of ice-cold HEPES-buffered sucrose (0.32 mol/L sucrose, 1 mmol/L EGTA, and 4 mmol/L HEPES at pH 7.4) containing the protease inhibitor cocktail (Sigma-Aldrich). The homogenate was centrifuged at 2,000×g for 10 min at 4° C. to remove the nuclei and large debris. The supernatant was centrifuged at 20,000×g for 30 min to obtain the crude synaptosomal fraction. The synaptosomal pellet was lysed via hypo-osmotic shock in 9 volumes of ice-cold HEPES-buffer with the protease inhibitor cocktail for 30 min. The lysate was centrifuged at 25,000×g for 45 min at 4° C. to obtain the synaptosomal membrane fraction (Chen et al., 2018), which was then dissolved in sodium dodecyl sulfate sample buffer at a final concentration of 0.25 μg/μl for immunoblotting.
Western blotting was used to quantify GluN1 and α2δ-1 protein levels in the hypothalamic synaptosome. Fifteen micrograms of total proteins from each sample was loaded and separated by 4-15% Tris-HCl sodium dodecyl sulfate-polyacrylamide gel electrophoresis (#456-1086, Bio-Rad, Hercules, Calif.). The resolved proteins were transferred to a polyvinylidene difluoride membrane (Millipore). The membrane was treated with 5% nonfat dry milk in Tris-buffered saline (TBS) at 25° C. for 1 h and then incubated in TBS supplemented with 0.1% Triton X-100, 1% bovine serum albumin, and rabbit anti-GluN1 (#G8913, 1:100; Sigma, RRID: AB_259978), rabbit anti-α2δ-1 (#ACC-015, 1:500, Alomone, Jerusalem, Israel, RRID: AB_2039785), and mouse anti-PSD-95 (#75-348, 1:1,000, NeuroMab, Davis, Calif., RRID: AB_2315909) antibodies overnight at 4° C. The membrane was washed 3 times and then incubated with horseradish peroxidase-conjugated anti-rabbit IgG (1:5,000; Jackson ImmunoResearch, West Grove, Pa.) for 1 h at room temperature. The protein bands were detected with an enhanced chemiluminescence kit (Thermo Fisher Scientific, Waltham, Mass.), and protein band intensity was visualized and quantified using an Odyssey Fc Imager (LI-COR Biosciences, Lincoln, Nebr.). The protein levels of GluN1 and α2δ-1 were normalized by the PSD-95 protein band on the same gel.

[3] = peptide 1 μmol/L for 30 min, vs control peptide
[4] = Ang II 2 μmol/L for 60 min vs vehicle

T1 sequence (Q00959 20-1464 limits assumed, other chains not shown): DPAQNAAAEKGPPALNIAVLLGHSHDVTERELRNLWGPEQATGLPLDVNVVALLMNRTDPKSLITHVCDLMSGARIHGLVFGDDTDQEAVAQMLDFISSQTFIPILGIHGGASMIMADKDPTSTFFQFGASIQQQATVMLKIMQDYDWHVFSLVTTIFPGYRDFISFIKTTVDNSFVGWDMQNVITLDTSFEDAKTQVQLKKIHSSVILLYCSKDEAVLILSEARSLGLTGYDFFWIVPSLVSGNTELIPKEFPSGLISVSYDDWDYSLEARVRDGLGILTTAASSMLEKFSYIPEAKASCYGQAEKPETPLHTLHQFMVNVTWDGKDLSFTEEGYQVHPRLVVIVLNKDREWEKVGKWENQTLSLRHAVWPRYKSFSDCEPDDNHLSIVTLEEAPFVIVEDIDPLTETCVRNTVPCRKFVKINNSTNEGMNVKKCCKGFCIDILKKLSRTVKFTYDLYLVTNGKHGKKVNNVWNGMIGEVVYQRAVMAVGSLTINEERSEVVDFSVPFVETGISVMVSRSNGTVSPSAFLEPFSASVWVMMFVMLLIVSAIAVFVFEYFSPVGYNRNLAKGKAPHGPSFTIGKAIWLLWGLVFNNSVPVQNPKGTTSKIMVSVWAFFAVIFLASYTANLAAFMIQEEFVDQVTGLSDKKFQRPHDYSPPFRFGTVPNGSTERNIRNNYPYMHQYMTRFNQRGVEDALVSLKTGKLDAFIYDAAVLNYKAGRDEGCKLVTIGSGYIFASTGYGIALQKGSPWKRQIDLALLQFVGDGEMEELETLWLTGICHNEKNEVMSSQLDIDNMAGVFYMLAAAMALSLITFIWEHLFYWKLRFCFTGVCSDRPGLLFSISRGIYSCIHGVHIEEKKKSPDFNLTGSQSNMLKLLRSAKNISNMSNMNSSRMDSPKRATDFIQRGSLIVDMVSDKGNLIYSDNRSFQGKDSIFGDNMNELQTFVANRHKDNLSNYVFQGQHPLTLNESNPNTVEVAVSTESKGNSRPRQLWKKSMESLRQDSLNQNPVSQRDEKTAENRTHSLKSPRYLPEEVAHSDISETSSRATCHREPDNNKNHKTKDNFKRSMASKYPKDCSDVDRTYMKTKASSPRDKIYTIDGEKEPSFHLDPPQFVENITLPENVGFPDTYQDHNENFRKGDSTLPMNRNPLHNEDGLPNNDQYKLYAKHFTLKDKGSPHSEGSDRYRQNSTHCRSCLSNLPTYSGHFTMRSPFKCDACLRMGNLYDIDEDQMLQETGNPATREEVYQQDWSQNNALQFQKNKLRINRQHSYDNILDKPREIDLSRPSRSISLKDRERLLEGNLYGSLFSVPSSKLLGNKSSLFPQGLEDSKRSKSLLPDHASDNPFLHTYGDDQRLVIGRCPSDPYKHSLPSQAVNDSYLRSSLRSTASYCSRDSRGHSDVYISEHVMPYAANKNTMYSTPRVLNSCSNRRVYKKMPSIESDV
T1 sequence (Q00960 27-1482, other chains not shown): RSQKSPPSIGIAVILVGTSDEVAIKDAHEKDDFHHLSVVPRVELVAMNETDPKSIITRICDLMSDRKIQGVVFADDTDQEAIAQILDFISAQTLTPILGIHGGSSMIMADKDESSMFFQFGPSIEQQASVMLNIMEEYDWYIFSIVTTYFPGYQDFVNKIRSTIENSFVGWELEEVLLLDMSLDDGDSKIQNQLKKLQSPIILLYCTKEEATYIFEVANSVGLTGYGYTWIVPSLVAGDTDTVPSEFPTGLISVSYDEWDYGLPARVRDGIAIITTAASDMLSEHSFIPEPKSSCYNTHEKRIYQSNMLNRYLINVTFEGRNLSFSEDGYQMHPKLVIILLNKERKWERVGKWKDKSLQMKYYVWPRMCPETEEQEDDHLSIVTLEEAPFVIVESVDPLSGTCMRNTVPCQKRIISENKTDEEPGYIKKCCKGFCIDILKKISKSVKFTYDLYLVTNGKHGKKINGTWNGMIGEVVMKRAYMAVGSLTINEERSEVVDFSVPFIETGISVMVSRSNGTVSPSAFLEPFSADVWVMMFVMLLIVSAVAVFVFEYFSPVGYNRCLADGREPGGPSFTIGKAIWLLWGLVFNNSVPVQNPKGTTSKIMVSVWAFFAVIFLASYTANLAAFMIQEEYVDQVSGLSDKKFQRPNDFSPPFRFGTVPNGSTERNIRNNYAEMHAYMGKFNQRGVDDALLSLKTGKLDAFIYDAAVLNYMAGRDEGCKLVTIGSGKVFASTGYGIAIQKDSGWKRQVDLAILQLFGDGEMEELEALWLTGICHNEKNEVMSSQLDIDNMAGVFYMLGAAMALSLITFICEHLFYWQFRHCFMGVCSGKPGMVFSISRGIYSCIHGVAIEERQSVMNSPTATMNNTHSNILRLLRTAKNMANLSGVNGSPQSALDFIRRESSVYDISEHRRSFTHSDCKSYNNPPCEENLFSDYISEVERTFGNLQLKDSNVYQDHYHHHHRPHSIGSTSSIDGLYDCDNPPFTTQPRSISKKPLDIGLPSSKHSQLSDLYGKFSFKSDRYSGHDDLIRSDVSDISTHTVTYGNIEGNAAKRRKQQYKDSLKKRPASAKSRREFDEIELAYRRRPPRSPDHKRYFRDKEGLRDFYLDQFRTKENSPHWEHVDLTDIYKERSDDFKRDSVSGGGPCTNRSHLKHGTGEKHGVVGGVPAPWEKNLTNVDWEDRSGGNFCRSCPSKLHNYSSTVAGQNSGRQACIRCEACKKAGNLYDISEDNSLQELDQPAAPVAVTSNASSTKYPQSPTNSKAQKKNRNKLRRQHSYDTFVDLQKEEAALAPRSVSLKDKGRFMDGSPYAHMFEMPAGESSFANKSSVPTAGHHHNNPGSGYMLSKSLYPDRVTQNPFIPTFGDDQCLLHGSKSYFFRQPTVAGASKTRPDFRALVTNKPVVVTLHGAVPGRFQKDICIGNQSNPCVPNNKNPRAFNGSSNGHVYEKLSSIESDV

YGRKKRRQRRRVSGLNPSLWSIFGLQFILLWLVSGSRHYLW (a2d1 peptide) [α2δ-1Tat peptide, 30-amino-acid peptide mimicking the C-terminal domain of α2δ-1 fused to the cell-penetrating peptide Tat]
MCAO-induced apoptotic signaling (cleaved caspase-3) (cleaved caspase-3): suppresses | effect of Ang II on mEPSC frequency in pretreated slices ([1]; losartan 2 μmol/L, pregabalin 20 μmol/L, peptides 1 μmol/L): failed to increase | effect of Ang II on puff NMDA currents in pretreated slices ([1]; losartan 2 μmol/L, pregabalin 20 μmol/L, peptides 1 μmol/L, 30 min): had no effect | effect of Ang II on the protein level of GluN1 [2, 3]: significantly attenuated | effect of Ang II on the protein level of α2δ-1 [2, 3]: significantly attenuated

NCC1(CC(=O)O)CCCCC1 [gabapentin]
MCAO-induced apoptotic signaling (cleaved caspase-3) (cleaved caspase-3): suppresses

Ang II: angiotensin II, obtained from Sigma (DRVYIHPF; Angiotensin-2; UniProt P01019 25-32, looked up)
amplitude of puff NMDA currents of labeled PVN neurons ([1]; Ang II 2 μmol/L for 30-60 min): markedly increased | baseline frequency of mEPSCs of labeled PVN neurons ([1]; Ang II 2 μmol/L for 30-60 min): significantly increased | protein level of GluN1 in hypothalamic synaptosomes [2, 4]: significantly increased | protein level of α2δ-1 in hypothalamic synaptosomes [2, 4]: significantly increased
